{
  "source": "patent US8241627B2",
  "about": "“Modified polypeptides stabilized in a desired conformation and methods for producing same” (The Center for Blood Research, Inc., priority 2000, dated 2012)",
  "key": {"ICAM-1 [1]": {"biological_target": "T1, ICAM-1 (Homo sapiens, UniProt P05362)", "assay": "Binding of LFA-1 or isolated I-domain transfectants to immobilized ICAM-1", "format": "cell-based", "design": "ICAM-1 was purified from human tonsil; from tissue; host or cells: human tonsil", "description": "Clones of the transfectants that expressed similar levels of cell surface LFA-1, as determined by flow cytometry using monoclonal antibody TS2/4 (FIG. 3B), were tested for their ability to bind to immobilized ICAM-1, as previously described (Lu, C and Springer, T A (1997) J Immunol 159:268-278).\nBriefly, ICAM-1 was purified from human tonsil, and coated to 96-well plates as described previously (Lu, C and Springer T A, (1997) J Immunol 159:268-278). Cells were labeled with a florescence dye 2′,7′-bis-(carboxyethyl)-5(and-6)-carboxyfluorescein, acetoxymethyl ester (BCECF-AM), and resuspended to 1×10^6/ml in L15/FBS. 50 μl cell suspension was mixed in ICAM-1 coated wells with an equal volume of L15/FBS in the absence or presence of monoclonal antibody (CBRLFA-1/2, 10 μg/ml). Monoclonal antibodies were used at final concentration of 1:20 hybridoma supernatant, 1:200 ascites, or μg/ml purified IgG. For testing the effect of divalent cations, BCECF-AM-labeled cells were washed 2× with TS buffer, pH7.5 (20 mM Tris, pH 7.5, 150 mMNaCl) containing 5 mM EDTA, followed by 2 washes with TS buffer, pH7.5. Cells were then resuspended to 5×10^5/ml in the TS buffer, pH7.5 supplemented with 1 mM MgCl2/CaCl2, MgCl2, MnCl2 mM EDTA, and 100 μl cell suspension was added to ICAM-1 coated wells. After incubation at 37° C. for 30 minutes, unbound cells were washed off on a Microplate Autowasher (Bio-Tek Instruments, Winooski, Vt.). The fluorescence content of total input cells and the bound cells in each well was quantitated on a Fluorescent Concentration Analyzer (IDEXX, Westbrook, Me.). The bound cells were expressed as a percentage of total input cells per sample well.\nFor generating stable K562 transfectants that express the I-domain on the surface, 20 μg of SspI-linearized pcDNA3.1/Hygro(+) containing the sequences encoding the I domain and the PDGFR transmembrane domain was used to transfect K562 cells by electroporation as described above. Transfectants were selected for resistance to 100 μg/ml hygromycin B, and were further subcloned by cell sorting and limiting dilution; clones that expressed similar levels of surface wild-type and mutant I domain-PDGFR were selected for functional studies. Stable cell lines were maintained in RPMI medium 1640 supplemented with 10% FBS and 100 μg/ml hygromycin B. Cell surface expression of the isolated I-domains was determined by flow cytometry using antibody TS1/22 to the I-domain (FIG. 7). Two clones from each transfectant were selected and tested for binding to immobilized ICAM-1, and similar results were obtained with each of the two clones (FIG. 8A).\nIf the constitutive ligand binding activity of mutant K287C/K294C is due to the formation of a disulfide bond between the introduced C287 and C294, disruption of the disulfide bond with a reducing agent would abolish ligand binding ability of the mutant. Accordingly, the transfectants were treated with the reducing agent DTT (10 mM) in L15/FBS containing Mg^2+ and Ca^2+, and the ability of transfectants to bind to ICAM-1 was assessed.\nFurthermore, the effect of divalent cations on ligand binding of the isolated I-domains expressed on the surface of K562 transfectants was tested. The binding reactions were performed in HEPES/NaCl/glucose (20 mM HEPES, pH 7.5, 140 mM NaCl, 2 mg/ml glucose) supplemented with 1 mM […], 1 mM Mg^2+, or 1 mM EDTA."}, "[2]": {"tested_on": "T-lymphocytes in peripheral lymph node high endothelial venules", "assay": "Intravital microscopy of lymphocyte behaviour in peripheral lymph node high endothelial venules", "format": "in vivo", "settings": "mouse", "description": "Moreover, the ability of the open I-domain mutants to inhibit LFA-1 function in vivo was tested by visualizing microcirculation in the peripheral lymph node (LN) with intravital microscopy. Briefly, a small bolus (20-50 µl) of LN cell suspensions from […] mice were retrogradely injected through a femoral artery catheter and visualized in the subiliac LN by fluorescent epi-illumination from a video-triggered xenon arc stroboscope. After recording control […] cell behavior in the absence of 1-domain, the mouse was pretreated by intra-arterial injection of 1-domain (10 µg/g of weight) 5 minutes before T^GFP cell injection. All scenes were recorded on videotape and off-line analysis was done. The rolling fraction was calculated as percentage of rolling cells amount the total number of TGFβ cells that entered a venule. The sticking (firm adhesion) fraction was determined as the percentage of T^GFP cells becoming firmly adherent for >20 seconds in the number of T^GFP cells that rolled in a venule. Results were semi-quantitatively scored as follows: −: 0%, .+−.: 0-5%, +: 5-20%, ++: 20-40%, +++: 40-60%, ++++: 60-80%, +++++:80-100%."}, "ICAM-1 [3]": {"biological_target": "T1, ICAM-1", "assay": "BIAcore binding of soluble αL I-domains to ICAM-1", "description": "Briefly, recombinant mutant αL I-domain stabilized in the open conformation (K287C/K294C), or recombinant wild-type αL I-domain from amino acid residue G128 to Y307, were cloned into pET11b (Novagen) and expressed in E. coli induced with 1 mM IPTG for 4 hours. The recombinant proteins were purified from inclusion bodies by solubilization of inclusion bodies in 6M guanidine HCl and were refolded by dilution in the presence of 0.1 mM Cu^2+/phenanthrolin to enhance formation of disulfide bonds. Protein was concentrated by ammonium sulfate precipitation, dialyzed, and purified over a monoQ ion-exchange column. […] The recombinant proteins were then purified by gel filtration and concentrated by Centriprep. For BIAcore™ analysis, recombinant ICAM-1, ICAM-2 and ICAM-3 Fc chimeras were immobilized on the BIAcore™ sensor chip by an amine-coupling method. Recombinant αL I-domains were flowed in, and BIAcore™ assays were performed with Tris-buffered saline supplemented with 1 mM MgCl2 or 2 mM EDTA, at a flow rate of 10 μl/minute at 25° C."}},
  "data": [
    {"molecule": "wild-type I-domain: wild-type αL I-domain, soluble recombinant or expressed on K562 surface via PDGFR transmembrane domain (protein) GNVDLVFLFDGSMSLQPDEFQKILDFMKDVMKKLSNTSYQFAAVQFSTSYKTEFDFSDYVKRKDPDALLKHVKHMLLLTNTFGAINYVATEVFREELGARPDATKVLIIITDGEATDSGNIDAAKDIIRYIIGIGKHFQTKESQETLHKFASKPASEFVKILDTFEKLKDLFTELQKKIY", "values": [
      {"measurement": "binding of K562 cells expressing isolated I-domains to immobilized ICAM-1", "setting": "ICAM-1 [1]; I-domain on cell surface via PDGFR transmembrane domain", "value": "did not bind"},
      {"measurement": "effect of Mn2+ or Mg2+ on ligand binding of isolated I-domains", "setting": "ICAM-1 [1]; K562, 1 mM Mn2+ or Mg2+", "value": "did not activate ligand binding"},
      {"measurement": "effect of DTT treatment on binding to ICAM-1", "setting": "ICAM-1 [1]; K562 transfectants, DTT 10 mM in L15/FBS", "value": "did not affect binding"},
      {"measurement": "Fraction transmigration", "setting": "[2]; intra-arterial I-domain 10 μg/g", "value": "± (.+−.: 0-5%)"},
      {"measurement": "Fraction Rolling", "setting": "[2]; intra-arterial I-domain 10 μg/g 5 minutes before T-GFP cell injection", "value": "+++ (+++: 40-60%)"},
      {"measurement": "Fraction firm adhesion", "setting": "[2]; intra-arterial I-domain 10 μg/g, adherent >20 seconds", "value": "++ (++: 20-40%)"},
      {"measurement": "Kd", "setting": "ICAM-1 [3]; Scatchard plots using data at steady states, read-out: KD, interaction of αL I-domains with ICAM-1", "value": 1350, "unit": "µM"},
      {"measurement": "Kon, interaction of αL I-domains with ICAM-1", "setting": "ICAM-1 [3]; calculated by Koff/KD", "value": 2220, "unit": "M⁻¹ s⁻¹"},
      {"measurement": "Koff, interaction of αL I-domains with ICAM-1", "setting": "ICAM-1 [3]; curve fitting of dissociation phase, 1:1 binding model", "value": 3.00, "unit": "s⁻¹"}
    ]}
  ]
}
